Reference: patent WO2017055393A1

What was measured:
[1] = target: human Tim-3 (T cell Immunoglobulin- and Mucin domain-containing molecule 3) (human) (UniProt Q8TDQ0); assay: FACS, 10 ug/ml PE-labeled antibody on SR cells; geom. mean MFI sample / isotype control
[2] = target: human Tim-3 (T cell Immunoglobulin- and Mucin domain-containing molecule 3) (human) (UniProt Q8TDQ0); assay: FACS, 10 ug/ml PE-labeled antibody on CMK cells; geom. mean MFI sample / isotype control
[3] = target: human Tim-3 (T cell Immunoglobulin- and Mucin domain-containing molecule 3) (human) (UniProt Q8TDQ0); assay: FACS, 10 ug/ml PE-labeled antibody on KG-1 cells; geom. mean MFI sample / isotype control
[4] = target: human Tim-3 (T cell Immunoglobulin- and Mucin domain-containing molecule 3) (human) (UniProt Q8TDQ0); assay: FACS, 10 ug/ml PE-labeled antibody on TF-1 cells; geom. mean MFI sample / isotype control
[5] = target: human Tim-3 (T cell Immunoglobulin- and Mucin domain-containing molecule 3) (human) (UniProt Q8TDQ0); assay: FACS, 10 ug/ml PE-labeled antibody on SR cells; geom. mean MFI sample minus isotype control
[6] = target: human Tim-3 (T cell Immunoglobulin- and Mucin domain-containing molecule 3) (human) (UniProt Q8TDQ0); assay: FACS, 10 ug/ml PE-labeled antibody on CMK cells; geom. mean MFI sample minus isotype control
[7] = target: human Tim-3 (T cell Immunoglobulin- and Mucin domain-containing molecule 3) (human) (UniProt Q8TDQ0); assay: FACS, 10 ug/ml PE-labeled antibody on Pfeiffer cells; geom. mean MFI sample / isotype control
[8] = target: human Tim-3 (T cell Immunoglobulin- and Mucin domain-containing molecule 3) (human) (UniProt Q8TDQ0); assay: FACS, 10 ug/ml PE-labeled antibody on KG-1 cells; geom. mean MFI sample minus isotype control
[9] = target: human Tim-3 (T cell Immunoglobulin- and Mucin domain-containing molecule 3) (human) (UniProt Q8TDQ0); assay: FACS, 10 ug/ml PE-labeled antibody on Kasumi-1 cells; geom. mean MFI sample / isotype control
[10] = target: human Tim-3 (T cell Immunoglobulin- and Mucin domain-containing molecule 3) (human) (UniProt Q8TDQ0); assay: FACS, 10 ug/ml PE-labeled antibody on TF-1 cells; geom. mean MFI sample minus isotype control
[11] = target: human Tim-3 (T cell Immunoglobulin- and Mucin domain-containing molecule 3) (human) (UniProt Q8TDQ0); assay: FACS, 10 ug/ml PE-labeled antibody on RPMI-8226 cells; geom. mean MFI sample / isotype control
[12] = target: human Tim-3 (T cell Immunoglobulin- and Mucin domain-containing molecule 3) (human) (UniProt Q8TDQ0); assay: FACS, 10 ug/ml PE-labeled antibody on Karpas-299 cells; geom. mean MFI sample / isotype control
[13] = target: human Tim-3 (T cell Immunoglobulin- and Mucin domain-containing molecule 3) (human) (UniProt Q8TDQ0); assay: FACS, 10 ug/ml PE-labeled antibody on Pfeiffer cells; geom. mean MFI sample minus isotype control
[14] = target: human Tim-3 (T cell Immunoglobulin- and Mucin domain-containing molecule 3) (human) (UniProt Q8TDQ0); assay: FACS, 10 ug/ml PE-labeled antibody on Kasumi-1 cells; geom. mean MFI sample minus isotype control
[15] = target: human Tim-3 (T cell Immunoglobulin- and Mucin domain-containing molecule 3) (human) (UniProt Q8TDQ0); assay: FACS, 10 ug/ml PE-labeled antibody on RPMI-8226 cells; geom. mean MFI sample minus isotype control
[16] = target: human Tim-3 (T cell Immunoglobulin- and Mucin domain-containing molecule 3) (human) (UniProt Q8TDQ0); assay: FACS, 10 ug/ml PE-labeled antibody on Karpas-299 cells; geom. mean MFI sample minus isotype control
[17] = target: human Tim-3 (T cell Immunoglobulin- and Mucin domain-containing molecule 3) (human) (UniProt Q8TDQ0); assay: FACS, 10 ug/ml PE-labeled antibody on EOL-1 cells (24h pre-treated with 10 ng/ml PMA); geom. mean MFI sample / isotype control
[18] = target: human Tim-3 (T cell Immunoglobulin- and Mucin domain-containing molecule 3) (human) (UniProt Q8TDQ0); assay: FACS, 10 ug/ml PE-labeled antibody on EOL-1 cells (24h pre-treated with 10 ng/ml PMA); geom. mean MFI sample minus isotype control

Chain of human Tim-3 (T cell Immunoglobulin- and Mucin domain-containing molecule 3) (human) (Q8TDQ0 22-301): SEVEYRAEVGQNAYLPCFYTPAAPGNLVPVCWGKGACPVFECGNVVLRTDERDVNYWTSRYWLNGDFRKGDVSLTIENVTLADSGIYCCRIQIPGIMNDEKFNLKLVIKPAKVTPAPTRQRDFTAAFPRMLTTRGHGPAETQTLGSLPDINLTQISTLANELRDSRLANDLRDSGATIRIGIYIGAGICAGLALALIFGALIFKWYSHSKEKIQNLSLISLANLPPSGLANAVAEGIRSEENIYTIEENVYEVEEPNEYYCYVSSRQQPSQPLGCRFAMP

PE labeled anti-TIM3 (clone 344823, R&D) (antibody)
RFI (ratio of specific binding) [1]: 19 RFI | RFI (ratio of specific binding) [2]: 5 RFI | RFI (ratio of specific binding) [3]: 5 RFI | RFI (ratio of specific binding) [4]: 3 RFI | MFI (specific binding) [5]: 1050 MFI | MFI (specific binding) [6]: 384 MFI | RFI (ratio of specific binding) [7]: 51 RFI | MFI (specific binding) [8]: 363 MFI | RFI (ratio of specific binding) [9]: 4 RFI | MFI (specific binding) [10]: 229 MFI | RFI (ratio of specific binding) [11]: 23 RFI | RFI (ratio of specific binding) [12]: 3 RFI | MFI (specific binding) [13]: 3610 MFI | MFI (specific binding) [14]: 164 MFI | MFI (specific binding) [15]: 1790 MFI | MFI (specific binding) [16]: 247 MFI | RFI (ratio of specific binding) [17]: 2 RFI | MFI (specific binding) [18]: 207 MFI
